Consider two molecules from PMC3973330, “A highly divergent archaeo-eukaryotic primase from the Thermococcus nautilus plasmid, pTN2”.

The data set concerns the target T1, PolpTN2delta311-923 (Thermococcus nautilus (plasmid pTN2), UniProt D6MY06 1-310).
T1 sequence: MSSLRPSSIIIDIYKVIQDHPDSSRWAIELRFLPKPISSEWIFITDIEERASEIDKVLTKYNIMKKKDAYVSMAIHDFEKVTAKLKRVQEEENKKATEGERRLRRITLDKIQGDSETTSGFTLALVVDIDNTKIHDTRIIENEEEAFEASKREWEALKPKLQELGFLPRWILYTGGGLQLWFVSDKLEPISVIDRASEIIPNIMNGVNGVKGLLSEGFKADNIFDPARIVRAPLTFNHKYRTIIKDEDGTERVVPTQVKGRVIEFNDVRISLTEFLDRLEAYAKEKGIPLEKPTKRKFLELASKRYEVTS
As to the kind of experiment: EMSA; 10 mM Mg2+; EMSA: 50 mM Tris-HCl pH 8, 20 mM KCl, 10 mM MgCl2, 7.5 nM probe, 30 min at 65 C; 10% native PAGE in TBE. The note with it: protein: recombinant; tags: His-tag (pET30, NdeI/XhoI); label: 32P; single strand.

On to AGAGGGTTCAAAAAATGGTTTCACCCCAAA (ssDNA) [30 DNA], for which the binding result was “binds”. With AGAGGGUUCAAAAAAUGGUUUCACCCCAAA (ssRNA) [30 RT] the entry was “binds”.
